Test results from publication PMC6973334.
Several values for one entry are separate records, joined by “and”; a condition that tells them apart may be missing. Equal entries are not always repeated. Where two headings read alike, the source gives them in different places.

Assays:
[1] = target: LINGO-1 ectodomain (free ectodomain made from LINGO-1-Fc by limited proteolysis with chymotrypsin) (Homo sapiens); assay: SEC
[2] = target: LINGO-1 ectodomain (free ectodomain made from LINGO-1-Fc by limited proteolysis with chymotrypsin) (Homo sapiens); assay: SEC-MALS
[3] = target: LINGO-1 ectodomain (free ectodomain made from LINGO-1-Fc by limited proteolysis with chymotrypsin) (Homo sapiens); assay: SEC-MALS; remark: listed apart in the source

Chain of LINGO-1 ectodomain (free ectodomain made from LINGO-1-Fc by limited proteolysis with chymotrypsin) (Homo sapiens) (Q96FE5 42-561): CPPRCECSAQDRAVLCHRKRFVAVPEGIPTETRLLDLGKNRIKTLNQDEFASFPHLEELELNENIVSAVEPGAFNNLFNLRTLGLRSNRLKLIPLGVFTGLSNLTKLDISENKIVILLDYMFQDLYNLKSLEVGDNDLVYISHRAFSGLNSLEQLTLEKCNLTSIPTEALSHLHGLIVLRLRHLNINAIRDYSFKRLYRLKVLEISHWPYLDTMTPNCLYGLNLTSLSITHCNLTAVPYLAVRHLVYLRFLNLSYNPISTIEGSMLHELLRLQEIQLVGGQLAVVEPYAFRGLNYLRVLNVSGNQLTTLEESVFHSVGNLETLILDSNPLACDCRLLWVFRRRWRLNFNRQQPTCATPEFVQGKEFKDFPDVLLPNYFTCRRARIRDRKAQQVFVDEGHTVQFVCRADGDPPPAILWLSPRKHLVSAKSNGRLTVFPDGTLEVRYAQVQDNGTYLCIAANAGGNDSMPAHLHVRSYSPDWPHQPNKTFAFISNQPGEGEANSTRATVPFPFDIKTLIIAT

| reduction of the concatemer peaks [1] [%] | stoichiometry N (LINGO-1 per mAb) [2] | stoichiometry N (LINGO-1 per mAb) [3] | Substance |
| --- | --- | --- | --- |
| 25 | – | – | Li81 R18S/S31R mAb (antibody) |
| 50 | – | – | Li81 R18S/R54T mAb (antibody) |
| – | 2 and 1 | 2 | Li81 R18S/S31R/R54T mAb (antibody) |
